Reference: patent US5876948 (The Children's Medical Center Corporation, dated 1999)
Bridge positions count the residues as written; N and C are the ends. Square brackets hold non-standard residues; d marks the D form. Ends that are not written are not given here. NMeF = CN[C@@H](Cc1ccccc1)C(=O)O; pGlu = O=C1CC[C@@H](C(=O)O)N1; Sar = CNCC(=O)O

Molecular target: β-amyloid peptide β1-40 (polypeptide corresponding to the first 40 amino acids of β-amyloid)
Experiment: cell-based or functional assay

| Binder | Therapeutic Efficacy (%) |
| --- | --- |
| RPCPQCFYPLM (disulfide 3-6; ends not checked) [[Cys^3,6, Tyr^8, Pro^9]-Sub P] | 53 |
| RPKPQQFFGLM-NH2 [Substance P] | 100 |
| RPKPQQFFGLX (nor-leucine at position 11) [[Nle^11]-Sub P] | 77 |
| RPKPQQFFGLM-OMe [Sub P, Methyl Ester] | 71 |
| RPKPQQFFGLM-OH [Sub P, Free Acid] | 53 |
| QFFGLM [Sub P (6-11)] | 65 |
| [pGlu]QF[NMeF][Sar]LM (ends and bridges not checked) [[pGlu^5, Me-Phe^8, Sar^9]-Sub P (5-11)] | 41 |
| FFGLM [Sub P (7-11)] | 41 |
| RPKPQQF [Substance P (1-7)] | 82 |
